These results are taken from the supplement of paper PMC12042874.

± gives the uncertainty stated by the source.

The series is described as follows: amyloid nucleation score (Sup35N fusion, yeast selection) (log enrichment); library NNK1; higher = more nucleation; inactive = no reads after selection. The gist of the method: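 The nucleation score is the DiMSum log enrichment of output over input reads, centred on the mode score of non-aggregating sequences. Only sequences with 100 or more input reads were scored, using Illumina sequencing of input and output plasmid inserts. Psi-negative yeast expressing Sup35N fused to peptides of 20 random codons were induced 24 hours with 100 μM copper sulfate and grown 7 days at 30°C on medium lacking adenine and uracil.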
With MVTTWVHGYVWRANGQTLFR, the amyloid nucleation score worked out at 1.28 ± 0.7.

Consider PCWGGTLGSVKLVVSSSA, for which the amyloid nucleation score entry is “inactive”. The figure for VLRKTFGCFETMV is 3.92 ± 0.073; for LYFGNTGKGNFRQVSRLKHS it is 0.116 ± 0.73; for IIRDSFKNRPETAYTHRTWD it is 1.13 ± 0.15. Consider RNMVSLRHSEDVICVQDTTP, for which the amyloid nucleation score was -0.729 ± 0.34. The figure for DAFAGF is 0.054 ± 0.59; for NCNIMNFIDTCLCGAMYYFR it is 4.12 ± 0.078; for LGFAFQNVTKALNLTFAYGS it is 0.81 ± 0.15. The figure for KSLQTETFTKTAATQKSELA is -0.3 ± 0.52; for DYLLFSVQGNYESWYNGCKF it is -2.05 ± 2.4. Substance YMGPFVPFSRTTAYNVSTFK gave an amyloid nucleation score of 0.42 ± 0.79. The result for YWGTS reads 0.971 ± 0.49; that for FPASNAQNLRLFQVGYGRPQ, 0.185 ± 1.1; that for VYDLS, -0.006 ± 0.72. LLFYYLHIFMFSDDRVM: the amyloid nucleation score was determined as 0.582 ± 0.56. The substance LGFRVNWIDHPRSNRSTAGL gave an amyloid nucleation score of 0.604 ± 0.97.

For KTGFYGFMVGM, the amyloid nucleation score came out at 4.54 ± 0.063.

Take GCGFSWSLCGESPYAVRPVA: the amyloid nucleation score stood at 0.538 ± 0.55.

Take WLHNIQRYTFFSKLRNQRRR: the amyloid nucleation score was -0.442 ± 0.76. For the substance IWGKC, the amyloid nucleation score was -0.644 ± 0.76. The figure for NRLIGGLFSCVCTADQSTHS is 8.419 ± 0.047; for QRIFTRLIYIRYAIPKFRTK it is -0.399 ± 0.32; for QKLCCLSNVVLNTGP it is “inactive”. The substance TNILLLHFSDHEFGLEFRYL had an amyloid nucleation score of 1.68 ± 0.17.

On to TSQENTDINGPCKLTSVLQR, for which the amyloid nucleation score worked out at 0.436 ± 0.68. The result for VMDQLIV reads “inactive”; that for NAIGILRHLTRMFPFD, 0.747 ± 0.44. The result for LYLNADLYYE reads 0.005 ± 0.7; that for NARPYRPSFILQSL, -0.698 ± 0.54. The result for WLWINPMEVDYGVLTRLEKT reads -0.213 ± 0.26.

In turn, LCWVYHYKGFKRGVCRRCES yielded an amyloid nucleation score of -0.86 ± 1.6.

As to GVGVCYFSC, the amyloid nucleation score stood at 2.2 ± 0.22. The result for VFKESGSRGFVMYTGILSCQ reads 0.507 ± 0.68; that for LNCPFYIFFLLHTVSA, 6.608 ± 0.065; that for MERDEFKFLGERLGWLSCWR, 1.04 ± 0.57. The result for TYRDKNNVRFKRFLGKRTAC reads -1.22 ± 0.99; that for VYVDVSFPPPVFEWCGPQIT, 0.392 ± 0.69; that for NKSCDGVRLCREARKALEPC, 0.34 ± 0.52. The result for DLADNVRKMGEFTSSVANIL reads 0.204 ± 0.4; that for DVYVSCGYVSQMGPHAEWDG, 0.102 ± 0.54. EYNGCYFPRIM displayed an amyloid nucleation score of 0.628 ± 0.66. GNYVVVVGYN yielded an amyloid nucleation score of 0.326 ± 0.5. The result for HVQLELTSCKEGGGCRS reads 0.379 ± 0.78.

TSMWTYY gave an amyloid nucleation score of 0.298 ± 0.33. The figure for FISVMTLRLEKFEVVGDMKL is -0.43 ± 0.39; for WHRGYGMLTRLRWRPDTVLF it is -0.052 ± 1.2; for DDPLNVTHKVRN it is 5.31 ± 0.069. For RNELTVFGLISPWESVFNLG, the amyloid nucleation score entry was “inactive”. The figure for NVMSSPCIRVGMLRMGVTKS is 1.62 ± 0.51.

As for YALCKLSA, the amyloid nucleation score amounted to 0.851 ± 0.79. The result for FFCERVLPVRVVC reads 1.06 ± 0.76; that for RGEKLQEVMSVGYWIGFFNN, 0.907 ± 0.27; that for LRYFDFCISRLDSEGN, 0.264 ± 0.64.

For LRAVTWLRYAYQGLFDVDV, the amyloid nucleation score is -0.07 ± 0.56. The result for VRGLGGW reads -0.134 ± 0.97; that for GLTGLTLWARATRRRVGTLS, -0.153 ± 0.59; that for FLNMQYRGLQ, 3.42 ± 0.11. The result for ICHCGRHAVHRRHTCHWTLG reads “inactive”; that for TVITFRLAT, 1.69 ± 0.26. The entry for FTFFRRW is “inactive”; for PFLQQNKIFNGLYEMTNWVA it is “inactive”. Turning to YMLRYVAWCLGPAL, the amyloid nucleation score stood at 0.459 ± 0.37. The figure for HMGVRMNHFFTSDLSVVMWF is 3.59 ± 0.12; for KDRFMSIYLVSYWSGLCTGL it is “inactive”; for EHGNVACRWDTHISLVWCHF it is 7.304 ± 0.057.

Take NWNVGTQTKHVDNFLHKVIN: the amyloid nucleation score was -0.315 ± 0.74. The result for NGLFIRYSVVMAYSELEVVG reads -0.162 ± 0.7; that for GITIITFIDGSLLGRDFPCW, 2.14 ± 0.26.

MMCGNLY displayed an amyloid nucleation score of 0.625 ± 0.7. The figure for LIIVEIMLDDVSVVSFRVIH is 0.195 ± 0.6. The figure for STFIDGSGIVALHCNSGCLA is 0.86 ± 0.73; for QNMLFTIKRFSNQPDTVVFE it is -0.202 ± 0.49; for LHTCHSLLPLIEYDFISYGV it is -0.208 ± 0.7. The figure for AWDVAS is 0.967 ± 0.6; for ALLGFRSCMQASFFFFRWFI it is -0.801 ± 0.89; for SLCVWDSFNPERTGLFMRWI it is 0.99 ± 0.93.

As for LYIRSIACGSSLLFLAVLNC, the amyloid nucleation score is -0.856 ± 1.1. The result for TFYRLSISVVSLNMVIHPGP reads 1.5 ± 0.2; that for RNTRTDSSTQTLLIVSHH, 0.011 ± 0.51. The figure for TFSQWWVRSCFGTRMNWCLV is 0.174 ± 1.2; for FSAKYMQGTQWSRLVHMLRT it is 0.112 ± 0.48. CSNDLECFCDFNCRL: the amyloid nucleation score was -0.033 ± 0.39.

As to RRRMFSCLDPEVWEVQRGRV, the amyloid nucleation score is -0.348 ± 0.68. Substance HNSLWGYFFMF had an amyloid nucleation score of 3.19 ± 0.12. The result for IGQGFNCIR reads -0.083 ± 1.4.

The substance SGVLLINGVA came in with an amyloid nucleation score of 0.699 ± 0.42. The entry for IECPMAYTKTYFVYESEKRN is “inactive”; for TDIFCP it is -1.47 ± 1.7; for CLRDNSRRGRNVQSL it is -1 ± 1.5.

Take PFTYYFEVQLILRKT: the amyloid nucleation score turned out to be 0.773 ± 0.79. The figure for VITGYVCMDSVQFIWYVVWV is -0.638 ± 1; for FELGLNCCFLGLVVYAQVNA it is “inactive”. The figure for GRGTRLYVRRQW is 0.39 ± 0.28; for DRAWTGVWDDESPTT it is -0.383 ± 1.7; for FNDLYLGAYSRREDTNYVRL it is 0.198 ± 0.56. ECIIYPIVMHVFVQNMM showed an amyloid nucleation score of 1.56 ± 0.28. The figure for TAVVENCLPIWVVYSSKMY is 0.018 ± 0.6; for PSFSDLSHALGSSLESWGYR it is 0.021 ± 0.8; for LRKALRLDVHLGTNLYLNSF it is 0.542 ± 0.75. The result for LRNVSFSDFVYWSGFFRGVV reads “inactive”; that for VVVVIFDFRCNKLQ, 2.28 ± 0.2; that for CPHALYKSLIIPGSMFYKVR, -1.04 ± 1.7.

VILVFRVDNCTERKAN registered an amyloid nucleation score of -0.097 ± 0.5. As to FWVRSGCVSMYGPRRVALEV, the amyloid nucleation score is -0.003 ± 0.43.

TLITWTLVSVGIWTMQS had an amyloid nucleation score of 1.56 ± 0.53. The result for WLSSKGRQSMSYCAYTMRTP reads -0.247 ± 0.34; that for SVWVVCFVSRNVLVMFNSNF, “inactive”. The result for QTNMMSTHHP reads 0.39 ± 0.41; that for SWKIFIRIMTDYSIQFAYSY, 1.88 ± 0.098.

The substance WNEVILILDNCAIVCYDILT registered an amyloid nucleation score of 4.05 ± 0.054.

For the substance LIEGRGIRGLVCCFSISFA, the amyloid nucleation score amounted to 8.375 ± 0.048. The result for GLACYM reads 0.413 ± 0.4; that for NFKNRPSRLSRSNRSLFSTG, -0.887 ± 0.85. The substance SRLVCLVNYVGGGYIETITL came in with an amyloid nucleation score of 4.02 ± 0.1. The figure for CGVMDGYLTAK is -0.619 ± 0.32; for NYGAFY it is -0.13 ± 0.63. The figure for RLRTNVLSNRVGDPIMTSHV is 0.158 ± 0.54; for APFHEGNIFRAVTFKTYPSR it is -0.422 ± 0.72.

Turning to NFSYMLLLAPSKVTRAGCFV, the amyloid nucleation score was -0.134 ± 1.3. The result for CIVVYLSLY reads 3.32 ± 0.099; that for YGCDGDVFRLIVWDVIAPSE, 0.044 ± 0.34; that for DASTEITGLAPGFSTTVGRM, -0.536 ± 0.81. The result for EISVKECGGSLDYNANLRDR reads “inactive”.

In turn, CFFPVSPFFIIRGKIQIFYL returned an amyloid nucleation score of -2.51 ± 2.7. The figure for SLSRD is -0.393 ± 0.41. The result for TKYCFPFNFQGSLHQWRRRF reads 0.972 ± 0.52.

In turn, WSTLVKRSDFCVHWVLFGSG showed an amyloid nucleation score of -0.179 ± 0.46. The result for TLHTKSGLNIMARYPMAERG reads 1.31 ± 0.8. TSGLSGSESKESTDKCCIEC gave an amyloid nucleation score of 0.713 ± 0.92. The result for LLSFGTFTGPKRVYLSLSMV reads 0.059 ± 0.86; that for CGIDKSDRIMLIKTVQLSVQ, 0.09 ± 0.68.

The substance VLSVNAV yielded an amyloid nucleation score of -0.482 ± 0.51.

Consider TTFFYYSEGKIR, for which the amyloid nucleation score was -0.657 ± 0.51. The figure for TRHGLGRFVHSRTVVFIGIW is -0.642 ± 0.82. The figure for FYSFWMGRTCMFIVTRVNSA is -0.091 ± 0.31; for YYVGSYTL it is “inactive”; for CVWNYCAWFTVARNTTLFNN it is -0.508 ± 0.89. The substance MTDMVVSCCMPAEVQRRSGA had an amyloid nucleation score of 0.009 ± 1.1.
